Results reported in patent publication JP2015180231A.

Target: RSV融合(F)タンパク質 (RSV fusion (F) protein), on RSV-infected HEp2 cells (respiratory syncytial virus (RSV)) (UniProt P03420)
Assay: cell-based or functional assay

Chain of UniProt P03420 (P03420 26-574): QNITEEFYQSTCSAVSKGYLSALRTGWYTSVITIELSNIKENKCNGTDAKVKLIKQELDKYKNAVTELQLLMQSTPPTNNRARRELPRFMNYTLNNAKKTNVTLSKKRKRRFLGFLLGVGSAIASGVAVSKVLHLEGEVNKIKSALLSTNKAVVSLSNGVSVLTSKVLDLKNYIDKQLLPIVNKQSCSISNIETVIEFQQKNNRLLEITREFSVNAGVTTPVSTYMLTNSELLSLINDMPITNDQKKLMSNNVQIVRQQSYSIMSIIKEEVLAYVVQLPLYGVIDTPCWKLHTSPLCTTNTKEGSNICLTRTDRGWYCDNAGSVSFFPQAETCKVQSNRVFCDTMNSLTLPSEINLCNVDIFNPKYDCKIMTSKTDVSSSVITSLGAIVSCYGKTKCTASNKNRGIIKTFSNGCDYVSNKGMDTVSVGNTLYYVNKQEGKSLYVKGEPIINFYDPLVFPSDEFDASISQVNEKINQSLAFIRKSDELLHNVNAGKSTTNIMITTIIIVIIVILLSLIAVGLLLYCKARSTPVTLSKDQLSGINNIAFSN

Which RSV-A2ウイルスに対して最大活性の半分を阻害する濃度(IC50) (microneutralisation) does the source give for “抗RSV抗体D25 (anti-RSV monoclonal antibody D25)” here?
Its RSV-A2ウイルスに対して最大活性の半分を阻害する濃度(IC50) (microneutralisation) is 2.1 ng/mL.
